Results reported in publication doi:10.1101/600692v2.

Tests used:
purified protein [1] = substrate: C=C(O[C@H]1C=CC=C(C(=O)O)[C@@H]1O)C(=O)O; experiment: purified protein; settings: with glutamate and ATP; isochorismate made from chorismate by ICS1
purified protein [2] = substrate: O=C(O)c1ccc(O)cc1; experiment: purified protein; settings: with glutamate and ATP

B1: PBS3 (AvrPphB SUSCEPTIBLE3) (Arabidopsis thaliana) (protein)
chain: MKPIFDINETFEKQLKDLTSNVKSIQDNLLEEIITPNTKTEYLQRFLIDRFDKELFKKNVPIVSYEDIKPYLDRVVNGESSDVISARTITGFLLSSGTSGGAQKMMPWNNKYLDNLTFIYDLRMQVITKHVKGVEEGKGMMFLFTKQESMTPSGLPARVATSSYFKSDYFKNRPSNWYYSYTSPDEVILCPNNTESLYCHLLCGLVQRDEVVRTGSIFASVMVRAIEVLKNSWEELCSNIRSGHLSNWVTDLGCQNSVSLVLGGPRPELADTIEEICNQNSWKGIVKRLWPNTKYIETVVTGSMGQYVPMLNYYCNDLPLVSTTYGSSETTFGINLDPLCKPEDVSYTFMPNMSYFEFIPMDGGDKNDVVDLEDVKLGCTYEPVVTNFAGLYRMRVGDIVLVTGFYNNAPQFKFVRRENVVLSIDSDKTNEEDLFKAVSQAKLVLESSGLDLKDFTSYADTSTFPGHYVVYLEVDTKEGEEKETAQFELDEEALSTCCLVMEESLDNVYKRCRFKDGSIGPLEIRVVRQGTFDSLMDFFISQGASTGQYKTPRCIKSGKALQVLETCVVAKFFSI
Km (purified protein [1]): 14.90 µM | kcat (purified protein [1]): 472.29 min^-1 (printed as V/Et) | Km (purified protein [2]): 311.54 µM | kcat (purified protein [2]): 13.46 min^-1 (printed as V/Et)
